The values that follow come from patent publication US20260234242A1 (HAINAN SIMCERE ZAIMING PHARMACEUTICAL, published 2026).

Positions count from the first letter of the chain named. Read-outs that look alike come from different tables or passages of the source.

In experiment [1] the target is T1, human CDH6 on tumor cells (OVCAR3 cells, PA-1 cells) (human, UniProt P55285 54-790).
T1 sequence: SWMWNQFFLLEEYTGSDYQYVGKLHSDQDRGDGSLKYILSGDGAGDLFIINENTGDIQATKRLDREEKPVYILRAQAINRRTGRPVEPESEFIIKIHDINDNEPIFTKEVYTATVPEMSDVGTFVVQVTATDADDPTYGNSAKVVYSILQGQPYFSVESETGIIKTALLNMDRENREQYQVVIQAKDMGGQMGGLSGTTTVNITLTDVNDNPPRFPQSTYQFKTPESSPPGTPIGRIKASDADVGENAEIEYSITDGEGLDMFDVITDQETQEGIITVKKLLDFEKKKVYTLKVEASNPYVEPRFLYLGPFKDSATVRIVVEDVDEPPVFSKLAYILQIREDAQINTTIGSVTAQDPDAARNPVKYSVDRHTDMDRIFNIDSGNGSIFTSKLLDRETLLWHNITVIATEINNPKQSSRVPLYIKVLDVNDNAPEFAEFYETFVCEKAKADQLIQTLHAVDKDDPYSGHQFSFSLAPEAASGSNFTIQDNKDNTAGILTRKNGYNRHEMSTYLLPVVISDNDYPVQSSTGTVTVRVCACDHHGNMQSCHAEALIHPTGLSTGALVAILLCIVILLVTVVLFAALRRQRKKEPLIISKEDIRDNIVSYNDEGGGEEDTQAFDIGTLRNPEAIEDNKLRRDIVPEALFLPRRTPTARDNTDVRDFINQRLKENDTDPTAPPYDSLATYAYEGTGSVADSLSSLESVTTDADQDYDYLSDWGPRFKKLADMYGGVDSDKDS
The experiment can be described thus: FACS, OVCAR3 cells. Here is the method: (§1) OVCAR3 cells with high expression of CDH6 and PA-1 cells with moderate expression of CDH6 were used to detect the binding activity of the antibodies to the cells. […] The cells were washed once with PBS, counted, resuspended to 2×10⁶ cells/mL in an FACS buffer (PBS+2% FBS), and then added to a 96-well plate at 50 μL/well. The chimeric antibodies were diluted with FACS buffer (PBS+2% FBS) and added to the 96-well plate at 50 μL/well, and the plate was incubated at 4° C. for 1 h. […] The dilution was added to the 96-well plate at 50 μL/well, and the plate was incubated at 4° C. for 1 h. After the plates were centrifuged and washed 2 times with PBS, the cells were resuspended in an FACS buffer. The mean fluorescence intensity (MFI) was measured using FACS Canton II (BD). Analysis was performed by the GraphPad Prism software, data were fitted, and EC50 values were calculated. The chimeric antibodies tested had strong binding to both OVCAR3 cells and PA-1 cells.
(§2) According to the above sequences, heavy chain (HC) and light chain (LC) plasmids were constructed (the nucleic acid sequences encoding the VH and VL of the antibodies were recombined into an expression vector carrying a signal peptide (SEQ ID NO: 132, […]) and a heavy chain constant region/light chain constant region sequence to obtain recombinant plasmids expressing VH—CH1-Fc/VL-CL). According to the expression and purification methods in Example 2, the hCDH6-6 humanized antibodies were obtained, and the binding activity of the humanized antibodies was detected by ELISA and FACS (see 2.2 and 2.3 for the method).
Background: A flow cytometer gives signals particle by particle.

The target of experiment [2] is T2, his-tagged human CDH6 extracellular region protein (hCDH6 ECD-his) (human, UniProt P55285 19-615).
T2 construct: also called Human CDH6-his; hCDH6-his; not shown: his tag
T2 sequence: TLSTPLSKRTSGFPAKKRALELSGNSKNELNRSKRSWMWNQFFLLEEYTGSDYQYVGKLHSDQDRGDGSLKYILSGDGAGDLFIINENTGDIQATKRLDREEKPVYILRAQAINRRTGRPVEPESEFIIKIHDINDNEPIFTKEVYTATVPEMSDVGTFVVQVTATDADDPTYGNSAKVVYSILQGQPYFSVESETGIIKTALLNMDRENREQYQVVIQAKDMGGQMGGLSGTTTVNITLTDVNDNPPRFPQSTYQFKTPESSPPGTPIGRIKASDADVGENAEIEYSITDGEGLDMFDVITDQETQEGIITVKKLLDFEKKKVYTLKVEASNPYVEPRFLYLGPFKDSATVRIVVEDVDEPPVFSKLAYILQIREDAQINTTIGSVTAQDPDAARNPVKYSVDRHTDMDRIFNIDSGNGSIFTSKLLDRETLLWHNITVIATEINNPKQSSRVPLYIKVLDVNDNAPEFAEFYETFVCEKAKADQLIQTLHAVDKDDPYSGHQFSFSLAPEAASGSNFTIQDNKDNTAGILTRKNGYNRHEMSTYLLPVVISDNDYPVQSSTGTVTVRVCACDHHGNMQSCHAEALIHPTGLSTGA
The experiment can be described thus: SPR Biacore, antibody captured on Protein A. The procedure:
(§3) The affinity of the antibody for the antigen was determined by a multi-cycle kinetic method using a BIAcore 8K instrument. In each cycle, the antibody to be tested was captured using a Protein A chip (purchased from GE, Cat. No. 29-1275-56), and then the antigen human CDH6 protein (hCDH6-his, conventionally synthesized) was injected. The association and dissociation processes of the antibody with the antigen protein were recorded, and finally, the chip was regenerated using Glycine pH 1.5, wherein the mobile phase was HBS-EP+ (10 mM HEPES, 150 mM NaCl, 3 mM EDTA, 0.05% surfactant P20, and 1 mM Ca), the flow rate was 30 μL/min, the association time was 240 s, the dissociation time was 300 s, the regeneration time was 30 s, the detection temperature was 25° C., and the antigen concentration was 31.25-1000 nM. The data were analyzed using Biacore 8K analysis software (version No. 2.0) based on the 1:1 binding model to fit the antibody-antigen binding kinetic parameters, including the association rate constant ka, the dissociation rate constant kd, and the equilibrium dissociation constant KD. The affinity values of the control antibody DS-H01L02 were undetectable. Antibodies not shown in the table had undetectable affinity values.
Four hCDH6-6 humanized antibodies with fewer back mutations were selected, and the affinity for human CDH6 protein was further confirmed using Biacore.

Experiment [3] deals with T2, his-tagged human CDH6 extracellular …. In words: ELISA, coated antigen. Here is the method:
Human CDH6 protein (hCDH6 ECD-his, conventionally synthesized), monkey CDH6 protein (cynoCDH6 ECD-his, conventionally synthesized; the cynoCDH6 ECD sequence was derived from Uniprot #A0A2K5TW62 (19-615)), and murine CDH6 protein (mCDH6 ECD-his, conventionally synthesized; the mCDH6 ECD sequence was derived from Uniprot #P97326 (19-615)) were diluted with PBS to a final concentration of 1 μg/mL, and added to a 96-well ELISA plate at 100 μL/well. The plate was incubated at 4° C. overnight. The next day, the plate was washed 3 times with a plate washing solution (PBS+0.01% (v/v) Tween 20), and a blocking buffer (PBS+0.01% (v/v) Tween 20+2% (w/w) BSA) was added for blocking at room temperature for 2 h. The blocking buffer was discarded, and the plate was washed 3 times. The chimeric antibodies were diluted with 1% BSA+PBS (purchased from Cytiva, Cat. No. SH30264.01) and added to the 96-well plate at 50 μL/well. After incubation at 37° C. for 2 h, the plate was washed 3 times with a plate washing solution. […] The plate was incubated at 37° C. for 1 h and then washed 5 times with a plate washing solution. A TMB substrate (purchased from Seracare, Cat. No. 5120-0077) was added at 50 μL/well and incubated at room temperature for 10 min, then a stop solution (1.0 N HCl) was added at 50 μL/well. OD450 nm values were read using a microplate reader (Biotek). Analysis was performed by the GraphPad Prism software, data were fitted, and EC50 values were calculated. The chimeric antibodies tested all had strong binding to the human CDH6 protein, the monkey CDH6 protein, and the murine CDH6 protein.
According to the above sequences, heavy chain (HC) and light chain (LC) plasmids were constructed (the nucleic acid sequences encoding the VH and VL of the antibodies were recombined into an expression vector carrying a signal peptide (SEQ ID NO: 132, […]) and a heavy chain constant region/light chain constant region sequence to obtain recombinant plasmids expressing VH—CH1-Fc/VL-CL).
(An ELISA detects its analyte on a solid surface through an enzyme-linked reagent.)

The target is the same in experiment [4]. The experiment can be described thus: ELISA, coated antigen. The source holds these as a separate data set.
The target of experiment [5] is T1, human CDH6 on tumor cells (OVCAR3 …). In words: FACS, OVCAR3 cells. The procedure: as §1
as §2, with “VH-CH1-Fc/VL-CL).” for “VH—CH1-Fc/VL-CL).”, “hCDH6-1” for “hCDH6-6”
This is another data set of the same source.

For experiment [6], the target named is T2, his-tagged human CDH6 extracellular …. In words: SPR Biacore, antibody captured on Protein A. The procedure: as §3
Four hCDH6-1 humanized antibodies with fewer back mutations were selected, and the affinity for human CDH6 protein was further confirmed using Biacore.
The source holds these as a separate data set.

B1: hCDH6-6-H1L2 (antibody, V domains shown)
VH: EVQLVQSGAEVKKPGASVKVSCKASGYTFTDYYMAWVRQAPGQGLEWMGYIFPNSGGTDYSQKFKGRVTMTVDKSTSTVYMELSSLRSEDTAVYYCARELGADYGDYYAMDHWGQGTTVTVSS
VL: DIQMTQSPSSLSASVGDRVTITCRASENIDSYLAWYQQKPGKSPKLLVYSATLLADGVPSRFSGSGSGTDYTLTISSLQPEDFATYYCQHYYRTPPTFGQGTKLEIK
notes: Humanized
Take B1: in experiment [1], the EC50 (usually the concentration giving half of the maximal effect) was 0.62 nM and the “Max MFI” value came to 14300 MFI. In addition, in experiment [2], the Kd – broadly, the constant that tells how readily two partners part at equilibrium – was 138 nM; the koff – broadly, the first-order rate constant of dissociation – stood at 0.00607 s⁻¹; the kon (as a rule, the second-order rate constant of association) amounted to 44100 M⁻¹ s⁻¹. Besides, in experiment [3], the EC50 stood at 0.028 nM and the “Max OD450” value was 2.07 OD450.

B2: hCDH6-6-H2L1 (antibody, V domains shown)
VH: B1 VH with M70L
VL: B1 VL with V48L
notes: Humanized
With B2, in experiment [1], the EC50 was 0.61 nM and the “Max MFI” value was found to be 14000 MFI. In experiment [2], this molecule returned a Kd of 133 nM, a koff of 0.00616 s⁻¹ and a kon of 46200 M⁻¹ s⁻¹. Besides, in experiment [3], a half-maximal response (EC50) required 0.032 nM and the “Max OD450” value stood at 2.01 OD450.

B3: hCDH6-6-H1L1 (antibody, V domains shown)
VH: B1 VH
VL: B1 VL with V48L
notes: Humanized
B3: in experiment [1], the EC50 stood at 0.62 nM and the “Max MFI” value came out at 13700 MFI. In experiment [2], the Kd worked out at 192 nM, the off-rate (koff) was 0.00743 s⁻¹ and the kon came out at 38600 M⁻¹ s⁻¹. Besides, in experiment [3], the EC50 turned out to be 0.037 nM and the “Max OD450” value turned out to be 2.08 OD450.

B4: hCDH6-1-H1L1 (antibody, V domains shown)
VH: EVQLVQSGAEVKKPGSSVKVSCKASGYTFSNYWMHWVRQAPGQGLEWMGDIDPSHSETHYTQKFKDRVTITVDKSTSTAYMELSSLRSEDTAVYYCARGDLGRFDYWGQGTTVTVSS
VL: DIVMTQSPDSLAVSLGERATINCRASESVSIHGTHLMHWYQQKPGQPPKLLIYAASNLESGVPDRFSGSGSETDFTLTISSLQAEDVAVYYCQQSFEDPWTFGGGTKVEIK
notes: Humanized
Regarding B4, in experiment [4], the midpoint of the response, the EC50, lay at 0.025 nM and the “Max OD450” value came out at 2.8 OD450. In experiment [5], the EC50 was 0.166 nM and the “Max MFI” value came out at 14400 MFI. In experiment [6], this molecule returned a Kd of 21.7 nM, an off-rate constant (koff) of 0.00456 s⁻¹ and a kon of 210000 M⁻¹ s⁻¹.

B5: hCDH6-1-H1L3 (antibody, V domains shown)
VH: B4 VH
VL: DIQMTQSPSSLSASVGDRVTITCRASESVSIHGTHLMHWYQQKPGKPPKLLIYAASNLESGVPSRFSGSGSETDFTFTISSLQPEDIATYYCQQSFEDPWTFGGGTKVEIK
notes: Humanized
With B5, in experiment [4], the EC50 came out at 0.029 nM and the “Max OD450” value was determined as 2.67 OD450. In experiment [5], it took 0.175 nM to reach a half-maximal effect (EC50) and the “Max MFI” value came out at 14500 MFI. Besides, in experiment [6], the Kd was found to be 18.9 nM, the koff was 0.00824 s⁻¹ and the on-rate (kon) is 435000 M⁻¹ s⁻¹.

B6: hCDH6-1-H4L3 (antibody, V domains shown)
VH: B4 VH with S30T, A40R
VL: B5 VL
notes: Humanized
On to B6, for which, in experiment [4], a half-maximal effect (EC50) was put at 0.029 nM and the “Max OD450” value worked out at 2.61 OD450. Also, in experiment [5], the EC50 was determined as 0.162 nM and the “Max MFI” value came out at 15100 MFI.

B7: hCDH6-1-H1L2 (antibody, V domains shown)
VH: B4 VH
VL: B4 VL with P44S
notes: Humanized
In the case of B7, in experiment [4], the EC50 came out at 0.027 nM and the “Max OD450” value amounted to 2.75 OD450. Moreover, in experiment [5], the response was half-maximal at 0.177 nM (EC50) and the “Max MFI” value was 14500 MFI. Moreover, in experiment [6], the Kd stood at 21.5 nM, the koff turned out to be 0.00422 s⁻¹ and the kon was 196000 M⁻¹ s⁻¹.
